± gives the uncertainty stated by the source.
Experiment: protein stability index of a GFP-peptide fusion (yeast GPS) (PSI 1-4); higher = more stable; sorted into four equal gates, so the index is relative within each strain
Method in brief: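 Tiled 17-residue peptides from yeast proteins were fused downstream of GFP on a plasmid that also expresses Cherry, and the pooled library was carried in yeast. Mid-log cultures grown in leucine-free medium were sorted into four equal gates by GFP/Cherry fluorescence ratio. Plasmids from each gate were PCR-amplified and Illumina-sequenced, and reads were assigned to strains by barcodes. Each peptide's protein stability index is the sum, over gates, of the gate's read frequency multiplied by its gate number.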

Sequence	protein stability index (doa10∆)	protein stability index (pdr5∆)	protein stability index (san1∆)	protein stability index (ubr1∆)
AQFRVPRYHSKNSFQQA [SWP82]	2.5 ± 0.075	2.57 ± 0.065	2.37 ± 0.083	2.62 ± 0.047
KKFIEISDVKIQVAAFI [PRP8]	2.84 ± 0.058	2.54 ± 0.052	2.65 ± 0.048	2.55 ± 0.042
LRYYKNIWLNNKIINWE [NUT1]	3.56 ± 0.18	2.67 ± 0.087	2.2 ± 0.22	3.39 ± 0.16
YDRKKLPRKEVDDVLGG [RPC11]	3.2 ± 0.1	3.64 ± 0.14	3.29 ± 0.065	3.32 ± 0.099
LGKVRFANYKLLLKKII [SRB4]	1.71 ± 0.063	1.62 ± 0.05	1.43 ± 0.14	1.53 ± 0.044
IDDRDYVGNKRLELAGQ [RET1]	3.22 ± 0.15	3.47 ± 0.11	3.05 ± 0.12	3.58 ± 0.13
VKWVHMIIDEGHRMKNA [SNF2]	1.81 ± 0.12	1.91 ± 0.075	1.77 ± 0.13	3.11 ± 0.2
RENNFRVASDTVHEMEE [SMC4]	–	3.36 ± 0.28	3.19 ± 0.13	2.95 ± 0.27
TNSSILLGKILPREEHD [RRP6]	1.55 ± 0.064	2.18 ± 0.16	1.61 ± 0.25	1.58 ± 0.11
SRHFASYANLPGTITHG [FAS1]	2.75 ± 0.059	2.82 ± 0.055	2.57 ± 0.055	2.71 ± 0.039
IQKEEEPENNTVIEGVK [SWI3]	3.3 ± 0.073	3.06 ± 0.072	3.28 ± 0.048	3.25 ± 0.053
TPYNIDRLTQLVRNGPN [RPO21]	3.05 ± 0.12	3.19 ± 0.13	3.17 ± 0.076	3.18 ± 0.2
LAIDNMYILGMCVSKGN [YCG1]	2.19 ± 0.069	2.02 ± 0.061	2.27 ± 0.089	2.42 ± 0.057
VEHLLRDVRDQAAGGLS [RPN8]	2.7 ± 0.13	1.99 ± 0.17	2.81 ± 0.17	1.07 ± 0.12
PIAASTDLPIETAAMAS [RPN1]	1.48 ± 0.041	1.64 ± 0.052	1.53 ± 0.06	1.71 ± 0.058
EINETEFIRCGCLIKNL [RMP1]	2.48 ± 0.11	2.98 ± 0.096	2.82 ± 0.099	2.91 ± 0.055
INKIVEILTNQQRGITY [YGR119C/NUP57]	1.64 ± 0.073	1.99 ± 0.12	2.12 ± 0.13	2.09 ± 0.065
NARMPGMPNMPGMPNMP [SRP54]	3.34 ± 0.11	3.25 ± 0.085	3.09 ± 0.062	2.94 ± 0.071
LYPIFLLDDKKLMDEDS [YJR042W/NUP85]	2.01 ± 0.09	1.84 ± 0.14	1.38 ± 0.29	1.66 ± 0.057
LTFILGQLLSVKFLVYQ [YML031W/NDC1]	1.53 ± 0.081	2.14 ± 0.12	1.51 ± 0.19	1.69 ± 0.097
LTADARSMIEHARTAAV [PUP2]	2.11 ± 0.13	2.87 ± 0.22	2.38 ± 0.16	2.71 ± 0.084
IKKKRKELFEKTFDYVS [SMC1]	3.16 ± 0.12	3.07 ± 0.099	3.09 ± 0.12	3.13 ± 0.084
EKQIEELLDNCIETFVA [SRB6]	2.62 ± 0.13	–	3.19 ± 0.16	3.32 ± 0.12
MGSRRYDSRTTIFSPEG [PRE9]	3.36 ± 0.2	3.01 ± 0.17	2.89 ± 0.19	3.06 ± 0.15
HFNGIRRLDALVEKVYA [ITC1]	3.65 ± 0.11	2.77 ± 0.068	1.94 ± 0.28	2.95 ± 0.089
FLKERLMEASDAFRVHI [RPB2]	1.66 ± 0.073	1.7 ± 0.12	2 ± 0.15	1.74 ± 0.1
EYMKRHPTTIESLREIP [SEC65]	3.25 ± 0.082	3.21 ± 0.068	3.17 ± 0.059	3.06 ± 0.06

Sequence	protein stability index (doa10∆)	protein stability index (pdr5∆)	protein stability index (san1∆)	protein stability index (ubr1∆)
IRQYALATAHIYLSRFL [SSN8]	1.38 ± 0.034	1.34 ± 0.036	1.26 ± 0.12	1.11 ± 0.04
KNSRVELQKIYDRHQSS [SMC4]	3.46 ± 0.098	3.01 ± 0.15	3.37 ± 0.11	3.14 ± 0.11
LKFNSTEYRGTLVSTDN [SMX3]	1.74 ± 0.04	2.59 ± 0.049	2.27 ± 0.067	2.25 ± 0.041
YRNFMVNSYRLNPNEYF [SWI3]	1.69 ± 0.12	1.45 ± 0.058	2.3 ± 0.1	2.46 ± 0.075
DFYTRHHFTCEITGTSC [ITC1]	1.43 ± 0.042	1.64 ± 0.045	1.51 ± 0.094	1.65 ± 0.045
VVGQNQLIDQFEWDISN [SNF5]	2.52 ± 0.093	2.62 ± 0.1	2.9 ± 0.062	3 ± 0.12
YWQYKAGIPIGLKRSQL [SWP82]	1.7 ± 0.13	1.57 ± 0.081	1.69 ± 0.15	1.49 ± 0.049
IRGNLMGKRVDFSARTV [RPO21]	–	2.76 ± 0.24	–	2.5 ± 0.26
GRNRGRPNRRGPRNTEE [RPS2]	3.38 ± 0.069	3.24 ± 0.16	3.58 ± 0.1	3.45 ± 0.083
PSSEKPNIRTMSGTTKR [SSN2]	–	2.45 ± 0.27	–	–
TDANGKTIVTGGNGPED [RPO26]	3.62 ± 0.21	3.28 ± 0.099	3.48 ± 0.12	3.37 ± 0.057
APLNFNPIIENNVDNKY [SSN2]	2.69 ± 0.052	2.97 ± 0.049	2.79 ± 0.046	2.88 ± 0.046
VPNYEVSEKAFLLTQSK [RPN7]	3.17 ± 0.18	3.47 ± 0.24	–	2.75 ± 0.14
VLADALNAINNAEKTGK [RPS22A]	2.92 ± 0.056	3.27 ± 0.059	2.67 ± 0.06	2.97 ± 0.049
VKFLVYQGVYSMGSILL [YML031W/NDC1]	1.65 ± 0.091	1.43 ± 0.088	1.28 ± 0.099	1.7 ± 0.17
SPPIIDLFSNNNYNSRI [MED1]	2.86 ± 0.071	2.92 ± 0.076	2.86 ± 0.062	2.94 ± 0.056
CVEWRLPEIAKEIYTTL [YJR042W/NUP85]	1.4 ± 0.075	1.46 ± 0.071	1.52 ± 0.11	1.8 ± 0.066
RVARRNAARKAEASGEA [RPS9A]	3.32 ± 0.13	3.44 ± 0.17	–	3 ± 0.098
HINKIPSNSTTTLHGPG [SRB8]	2.89 ± 0.059	3.17 ± 0.059	2.96 ± 0.052	3.11 ± 0.039
HSQFMKDLKDDSIYTKP [YJL039C/NUP192]	2.83 ± 0.045	3.02 ± 0.05	3.02 ± 0.044	2.93 ± 0.038
PIVIIFRALGIIPDGEI [RPB2]	1.92 ± 0.048	1.79 ± 0.056	2.05 ± 0.063	2.41 ± 0.039
LIAVYYSFGGLLMRLEG [RPB8]	2.69 ± 0.059	2.79 ± 0.076	3.07 ± 0.1	2.89 ± 0.069
YYAKKRAFTKKVSSASA [RPL16B]	1.82 ± 0.075	1.71 ± 0.048	1.95 ± 0.068	1.41 ± 0.055
FNSFRRFKSQFLYVLIP [QCR8]	1.63 ± 0.1	1.69 ± 0.069	1.56 ± 0.12	1.4 ± 0.054
ESKLSLETLFNRWHSES [FAS2]	3.26 ± 0.084	3.24 ± 0.1	3.1 ± 0.064	3.11 ± 0.065
EQFYTKDIIDPKLTSIF [RPN2]	2.32 ± 0.11	2.92 ± 0.11	2.36 ± 0.11	2.47 ± 0.09
RSRMLPTITLDDVYRPA [SNF5]	3.12 ± 0.081	3.43 ± 0.085	3.04 ± 0.075	3.06 ± 0.077

Sequence	protein stability index (doa10∆)	protein stability index (pdr5∆)	protein stability index (san1∆)	protein stability index (ubr1∆)
VQNLRSWETKLKQNILE [CSN9]	1.83 ± 0.077	2.04 ± 0.094	2.3 ± 0.11	1.82 ± 0.083
DVFNLLPNLGTPDDDEI [RPN8]	1.96 ± 0.071	2.02 ± 0.079	1.43 ± 0.12	1.43 ± 0.056
DRPGSKFHKREVVEAVT [RPL3]	3.04 ± 0.15	1.96 ± 0.14	2.02 ± 0.19	2.41 ± 0.13
MAFQKDAKSSAYSSRFQ [RPL5]	2.67 ± 0.11	2.89 ± 0.072	3.02 ± 0.061	2.92 ± 0.064
DFTQEDELRKQELISKA [ISW2]	3.11 ± 0.12	3.1 ± 0.076	3.03 ± 0.083	3.09 ± 0.09
DQVVVRGIDTLQKKVAS [RPB3]	2.39 ± 0.28	3.29 ± 0.19	2.68 ± 0.28	–
SSAKRSKNTAVSKVQKR [SRP72]	2.25 ± 0.11	2.77 ± 0.11	2.09 ± 0.11	2.32 ± 0.069
KRPTPPSFTFGGSTTNN [YOR098C/NUP1]	2.74 ± 0.051	3.03 ± 0.048	2.78 ± 0.043	2.9 ± 0.032
SKKDPRILKNVSPNDNN [YMR153W/NUP53]	2.65 ± 0.069	2.36 ± 0.045	2.42 ± 0.054	2.47 ± 0.034
KRCMDDLNPLKTLNLFK [RPO31]	2.98 ± 0.15	2.99 ± 0.074	2.69 ± 0.12	2.92 ± 0.064
ETTTEEDSENPSDWQRN [ITC1]	3.31 ± 0.17	3.31 ± 0.095	3.06 ± 0.11	3.38 ± 0.083
AARHRARFRSIHILKVA [RPL20A]	1.22 ± 0.077	1.18 ± 0.042	1.22 ± 0.11	1.1 ± 0.059
RKLAVERAGHLLCDKAQ [PRE5]	3.47 ± 0.15	3.18 ± 0.11	3.12 ± 0.072	3.37 ± 0.14
KKRNMPLQSIPEIGNRK [SWI1]	2.62 ± 0.041	2.67 ± 0.037	2.81 ± 0.038	2.63 ± 0.033
KFPDMGSLWVEFCDEPS [RPB5]	2.75 ± 0.044	2.89 ± 0.06	2.9 ± 0.066	2.96 ± 0.045
NNNNNNNDDNGNNNNNN [MED2]	3.277 ± 0.029	3.284 ± 0.023	3.327 ± 0.017	3.286 ± 0.023
LAVLALVIVKKGEQELE [RPS6A]	1.61 ± 0.038	1.56 ± 0.045	2 ± 0.072	2.54 ± 0.05
EALIEFIYDTEKNGGLG [FAS2]	2.52 ± 0.079	2.63 ± 0.076	2.67 ± 0.054	2.17 ± 0.055
VITALKEPPRDRKKDKN [RPL12A]	2.48 ± 0.08	2.61 ± 0.12	2.37 ± 0.1	1.85 ± 0.063
IVMEDHGVLQGTSQNYG [MED1]	3.11 ± 0.059	3.02 ± 0.067	3.13 ± 0.062	3.07 ± 0.049
VSFNDSQSMVTNKENNI [YIL149C/MLP2]	2.96 ± 0.057	3.3 ± 0.076	3.02 ± 0.057	3.16 ± 0.046
KNNNGDEKNKNNNEDNE [MED2]	3.23 ± 0.12	3.17 ± 0.11	2.87 ± 0.11	3.15 ± 0.11
ISTACPRLDDVVVDTVE [SMC4]	3.51 ± 0.071	3.43 ± 0.094	3.3 ± 0.058	3.46 ± 0.093
QTQREKAPLQPNSERET [IRR1]	3.1 ± 0.061	3.2 ± 0.059	3.06 ± 0.039	3.07 ± 0.054
FNVVDVGVDQLSIELEG [YJL039C/NUP192]	3.49 ± 0.076	3.34 ± 0.058	3.29 ± 0.038	3.37 ± 0.049
